# Test results from US20080076708A1.
# Biological target: Recombinant human Interleukin-18 (r-hIL-18) (human) (UniProt Q14116)
# Assay: cell-based or functional assay
# Chain of Recombinant human Interleukin-18 (r-hIL-18) (human) (Q14116 37-193 limits assumed): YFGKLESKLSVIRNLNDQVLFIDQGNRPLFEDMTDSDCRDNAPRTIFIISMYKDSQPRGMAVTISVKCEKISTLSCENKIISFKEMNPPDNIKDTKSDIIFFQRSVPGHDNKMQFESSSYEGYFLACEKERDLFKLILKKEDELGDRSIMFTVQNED
Biological activity U/mL (KG-1 cells in vitro bioassay; bulk ILNCT23),Biological activity U/mL (KG-1 cells in vitro bioassay; bulk ILNCT24),Specific activity U/mg (KG-1 cells in vitro bioassay; bulk ILNCT23),Specific activity U/mg (KG-1 cells in vitro bioassay; bulk ILNCT24),Biological activity U/mL (KG-1 cells in vitro bioassay; bulk ILNCT19),Biological activity U/mL (KG-1 cells in vitro bioassay; bulk ILNCT20),Biological activity U/mL (KG-1 cells in vitro bioassay; bulk ILNCT21),Biological activity U/mL (KG-1 cells in vitro bioassay; bulk ILNCT22),Specific activity U/mg (KG-1 cells in vitro bioassay; bulk ILNCT19),Specific activity U/mg (KG-1 cells in vitro bioassay; bulk ILNCT20),Specific activity U/mg (KG-1 cells in vitro bioassay; bulk ILNCT21),Specific activity U/mg (KG-1 cells in vitro bioassay; bulk ILNCT22),Substance
1.2e+06 U/mL,1.01e+06 U/mL,19800 U/mg,17900 U/mg,–,–,–,–,–,–,–,–,r-hIL-18BP bulks ILNCT23 and ILNCT24 (from UniProt O95998 31-194)
–,–,–,–,949000 U/mL,1.23e+06 U/mL,1.28e+06 U/mL,1.35e+06 U/mL,15400 U/mg,21400 U/mg,20400 U/mg,22500 U/mg,truncated form of r-hIL-18BP (serum-free produced drug substance batches ILNCT19-22) (from UniProt O95998 46-194)
